Common to all, as to assay: cell-based or functional assay
Test [1] addresses DOR-Gqi5 (delta opiate receptor fused to Gqi5) (mouse).
For the next test, the target named is N393A/CAM-Gqi5 (human).
In test [2] the target is D114^3.32A/E339^6.30A/T343^6.34R-Gq5 (human).

The values that follow come from patent US20110160081A1, “FUNCTIONAL COMPLEMENTATION ASSAY FOR DEFINED GPCR OLIGOMERS” (priority 2008, published 2011).

Chain of Myc-tagged D2R (unfused wild type dopamine D2 receptor, short isoform) (P14416 other isoform, or with tags, fused parts or gaps): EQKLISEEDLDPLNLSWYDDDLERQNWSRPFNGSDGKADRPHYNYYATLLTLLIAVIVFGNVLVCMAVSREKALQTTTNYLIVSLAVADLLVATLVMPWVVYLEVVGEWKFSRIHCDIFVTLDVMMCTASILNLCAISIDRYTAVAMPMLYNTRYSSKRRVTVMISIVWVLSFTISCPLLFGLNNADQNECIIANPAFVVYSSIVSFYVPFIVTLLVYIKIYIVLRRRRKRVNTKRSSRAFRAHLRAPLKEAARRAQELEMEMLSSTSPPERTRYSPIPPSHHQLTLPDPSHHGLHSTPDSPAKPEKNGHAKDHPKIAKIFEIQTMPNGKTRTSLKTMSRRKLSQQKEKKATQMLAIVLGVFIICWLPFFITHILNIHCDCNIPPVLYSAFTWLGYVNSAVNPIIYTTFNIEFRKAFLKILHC

The substance DPDPE (peptide) returned an activation at 5 nM DPDPE, aequorin luminescence in test [1] of 10 % activation.

For the substance “Myc-tagged D2R (unfused wild type dopamine D2 receptor, short isoform) (from UniProt P14416 2-443)”, in test [1], the potency of quinpirole in the presence of 5 nM DPDPE, aequorin luminescence is 10 fold. Besides, in the test with N393A/CAM-Gqi5 (human), the aequorin luminescence on quinpirole (functional complementation) is 3 fold. Further, the maximal activity, aequorin luminescence in test [2] stood at 49.6.
